Consider two molecules from US20190382481A1 (Janssen / Centocor, published 2019).

For test [1], the target named is T1, human recombinant (r)CD33 (human, UniProt P20138 18-259).
T1 construct: also called human rCD33
As to the kind of experiment: method not stated.

Test [2] deals with T2, human rCD3e (human, UniProt P07766 23-126).
T2 construct: also called human recombinant CD3 epsilon
Nature of the test: method not stated.

Test [3] deals with T3, cyno monkey rCD3e (cyno monkey, UniProt Q95LI5 22-117, limits assumed).
T3 construct: also called cyno recombinant CD3 epsilon
T3 sequence (looked up): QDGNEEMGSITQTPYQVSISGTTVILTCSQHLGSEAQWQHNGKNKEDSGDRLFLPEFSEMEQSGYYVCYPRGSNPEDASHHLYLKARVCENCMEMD
As to the kind of experiment: method not stated.

The target in test [4] is cynomologous (cyno) rCD33 (cyno). As to the kind of experiment: method not stated.
Sequence of cynomologous (cyno) rCD33 (cyno) (chain, as listed by the source limits assumed): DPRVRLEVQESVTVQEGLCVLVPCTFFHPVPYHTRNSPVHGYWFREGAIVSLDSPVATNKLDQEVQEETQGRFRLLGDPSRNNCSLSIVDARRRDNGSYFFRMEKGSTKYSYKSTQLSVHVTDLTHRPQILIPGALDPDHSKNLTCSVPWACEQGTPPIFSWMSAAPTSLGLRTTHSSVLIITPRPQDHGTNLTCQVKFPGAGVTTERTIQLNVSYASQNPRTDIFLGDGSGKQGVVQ
The target of test [5] is CD33 on human CD33 expressing AML cell lines and primary human cells (endogenous) (human, UniProt P20138 18-364). Nature of the test: cell-based or functional assay.
Sequence of CD33 on human CD33 expressing AML cell lines and primary human cells (endogenous) (P20138 18-364 limits assumed): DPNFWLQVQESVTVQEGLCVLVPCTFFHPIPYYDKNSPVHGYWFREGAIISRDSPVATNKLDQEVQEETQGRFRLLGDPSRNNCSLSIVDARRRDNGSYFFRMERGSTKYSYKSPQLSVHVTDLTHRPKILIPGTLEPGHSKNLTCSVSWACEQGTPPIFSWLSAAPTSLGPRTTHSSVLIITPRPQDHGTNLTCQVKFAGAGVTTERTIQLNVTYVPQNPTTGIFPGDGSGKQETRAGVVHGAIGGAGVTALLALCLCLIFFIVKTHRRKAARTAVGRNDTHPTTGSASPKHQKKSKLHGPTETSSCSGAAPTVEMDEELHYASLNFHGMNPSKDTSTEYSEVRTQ
In test [6] the target is T4, Human CD33 full length (over-expressed on transduced HEK293F cells) (human, UniProt P20138 18-364).
T4 construct: also called huCD33; human CD33 expressing cells
T4 sequence (P20138 18-364 limits assumed): as above
Nature of the test: flow cytometry, HEK293F cells expressing human CD33. Here is the method:
(§1) The purified antibodies were assessed for binding to stably transfected HEK293F cells expressing human CD33 or cyno CD33 (generation described above) along with the parental HEK293F as negative control. Cells were harvested from tissue culture flasks using non-enzymatic dissociation buffer (Thermo Scientific). The flasks were rinsed twice with PBS and dissociation buffer was added to the flask, and the flask was incubated for 10 minutes at 37° C. until the cells became non-adherent. The cells were centrifuged at 300 g for 5 minutes and resuspended at 1.0×10⁶ cells/ml in staining buffer (Becton Dickinson; Franklin Lakes, N.J.). 50,000 cells/well of each cell type was plated in 50 μl of staining buffer in round bottom plates (Becton Dickinson). 50 μl of 2× concentration test mAb or isotype control was added at 3 dilutions and zero (120 nM, 12 nM, and 1.2 nM and 0 nM), and the resultant solution was incubated 30 min at 4° C. […] 30 ul running buffer containing Sytox Green live/dead dye (ThermoFisher) was added to all wells with cells and the plates were read on an iQue IntelliCyt flow cytometer. […] Antibody binding was assessed by the mean fluorescence intensity in the AF647 channel. […]

The target of test [7] is T5, Cyno CD33 full length (over-expressed on transduced HEK293F / HEK 293T cells) (cyno).
T5 construct: also called cyCD33; cyno CD33 expressing cells
T5 sequence (chain, as listed by the source limits assumed): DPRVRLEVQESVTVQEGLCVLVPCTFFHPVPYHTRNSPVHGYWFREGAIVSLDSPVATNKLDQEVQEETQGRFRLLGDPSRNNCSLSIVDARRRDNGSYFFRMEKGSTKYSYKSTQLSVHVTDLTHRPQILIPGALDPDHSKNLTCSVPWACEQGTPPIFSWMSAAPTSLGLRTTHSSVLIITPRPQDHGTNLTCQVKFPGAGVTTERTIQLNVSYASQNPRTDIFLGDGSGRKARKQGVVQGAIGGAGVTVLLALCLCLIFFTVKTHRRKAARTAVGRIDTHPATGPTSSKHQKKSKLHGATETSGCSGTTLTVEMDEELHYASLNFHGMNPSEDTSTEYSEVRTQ
Nature of the test: flow cytometry, HEK293F cells expressing cyno CD33. Here is the method:
as §1

T2 sequence (P07766 23-126 limits assumed): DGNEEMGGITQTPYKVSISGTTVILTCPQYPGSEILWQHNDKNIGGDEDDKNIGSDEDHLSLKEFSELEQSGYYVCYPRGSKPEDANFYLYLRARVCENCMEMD
T1 sequence (P20138 18-259 limits assumed): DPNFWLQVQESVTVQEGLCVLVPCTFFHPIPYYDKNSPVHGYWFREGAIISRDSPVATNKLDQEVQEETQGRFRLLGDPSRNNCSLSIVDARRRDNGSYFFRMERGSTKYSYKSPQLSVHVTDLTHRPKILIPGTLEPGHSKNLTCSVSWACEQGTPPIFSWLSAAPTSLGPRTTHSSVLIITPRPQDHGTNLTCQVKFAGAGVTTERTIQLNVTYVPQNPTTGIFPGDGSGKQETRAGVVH

B1: C3CB189 (bispecific antibody, human IgG4 S228P, kappa, lambda, F234A L235A)
heavy 1: not shown
light 1: not shown
heavy 2: QVQLQQSGPRLVRPSQTLSLTCAISGDSVFNNNAAWSWIRQSPSRGLEWLGRTYYRSKWLYDYAVSVKSRITVNPDTSRNQFTLQLNSVTPEDTALYYCARGYSSSFDYWGQGTLVTVSSASTKGPSVFPLAPCSRSTSESTAALGCLVKDYFPEPVTVSWNSGALTSGVHTFPAVLQSSGLYSLSSVVTVPSSSLGTKTYTCNVDHKPSNTKVDKRVESKYGPPCPPCPAPEAAGGPSVFLFPPKPKDTLMISRTPEVTCVVVDVSQEDPEVQFNWYVDGVEVHNAKTKPREEQFNSTYRVVSVLTVLHQDWLNGKEYKCKVSNKGLPSSIEKTISKAKGQPREPQVYTLPPSQEEMTKNQVSLTCLVKGFYPSDIAVEWESNGQPENNYKTTPPVLDSDGSFLLYSKLTVDKSRWQEGNVFSCSVMHEALHNHYTQKSLSLSLGK
light 2: QSALTQPASVSGSPGQSITISCTGTSSNIGTYKFVSWYQQHPDKAPKVLLYEVSKRPSGVSSRFSGSKSGNTASLTISGLQAEDQADYHCVSYAGSGTLLFGGGTKLTVLGQPKAAPSVTLFPPSSEELQANKATLVCLISDFYPGAVTVAWKADSSPVKAGVETTTPSKQSNNKYAASSYLSLTPEQWKSHRSYSCQVTHEGSTVEKTVAPTECS
notes: Fully human IgG4-PAA bispecific made by Fab-arm exchange; CD33 arm C33B904 (C33H252/C33L118), CD3 arm CD3B376 (CD3H219/CD3L150; F405L, R409K); also called C33B904 × CD3B376
Turning to B1, in test [1], the Kd came to 0.00089 nM. The same molecule yielded a dissociation constant (Kd) in test [2] of 151 nM. In addition, in test [3], the equilibrium dissociation constant (Kd) was found to be 43.8 nM. This molecule also registered a dissociation constant Kd in test [4] of 0.363 nM. For the same molecule, in test [5], the “T cell activation (CD25) in human whole blood with Kasumi-1, median EC50” value was found to be 0.085 nM; the “T cell activation (CD25) in human whole blood with MOLM-13, median EC50” value amounted to 0.037 nM; the “T cell activation (CD25) with KG-1 target cells, median EC50” value came to 0.0664 nM; the “T cell activation (CD25) with Kasumi-1 target cells, median EC50” value turned out to be 0.0432 nM. For the same molecule, in test [5], the “T cell activation (CD25) with MOLM-13 target cells, median EC50” value was 0.0283 nM; the “T cell activation (CD25) with OCI-AML3 target cells, median EC50” value is 0.05 nM; the “T cell-mediated cytotoxicity of KG-1, median EC50, 6 donors, 48 h” value is 0.168 nM; the “T cell-mediated cytotoxicity of Kasumi-1, median EC50, 6 donors, 48 h” value was 0.05 nM. In test [5], the “T cell-mediated cytotoxicity of Kasumi-1 spiked in human whole blood, median EC50, 48 h” value worked out at 0.124 nM; the “T cell-mediated cytotoxicity of MOLM-13, median EC50, 6 donors, 48 h” value is 0.131 nM; the “T cell-mediated cytotoxicity of MOLM-13 spiked in human whole blood, median EC50, 48 h” value worked out at 0.111 nM; the “T cell-mediated cytotoxicity of OCI-AML3, median EC50, 6 donors, 48 h” value was determined as 0.183 nM. In test [5], the “ex vivo cytotoxicity of CD33+ blasts in AML patient whole blood, median EC50” value stood at 0.365 nM.

B2: C33B909 (antibody, V domains shown)
VH: EVQLVESGGGLVQPGRSLRLSCVASGFTFDDYAIHWVRQAPGKGLEWVSGLSWNGGNIGYADSVKGRFTISRDNAKNSLYLQMNSLKTEDTAFYYCTKDTPYGDYFDYWGQGTLVTVSS
VL: DIQMTQSPSSVWASVGDRVTITCRASQGISSWLAWYQQQPGKAPNLLIYRSSSLQSGVPSRFSGSGSGTDFTLTISSLQPEDFATYYCQQDNSFPYTFGQGTKLEIKR
notes: OMNIMouse campaign; also called C33H249/C33L115
On to B2, for which the binding result in test [6] and in test [7] was “no binding” throughout.
